*1 amine or outer side, *2 acyl side, *3 side chain or, on linkers, in order; H or OH if unused. Side-chain parts run from the residue outwards. The star is where a group is joined. C18 diacid = O=C(O)CCCCCCCCCCCCCCCCC(=O)*; γGlu = O=C(O)[C@H](CCC(=O)[*:2])N[*:1]; Isovaleryl = CC(C)CC(=O)*; Ahx = NCCCCCC(=O)O

The assay has as its target T1, human NPY2 receptor (human, UniProt P49146 1-381).
T1 construct: whole, on cells; also called hNPY2-R; hNPY2R
T1 sequence (looked up): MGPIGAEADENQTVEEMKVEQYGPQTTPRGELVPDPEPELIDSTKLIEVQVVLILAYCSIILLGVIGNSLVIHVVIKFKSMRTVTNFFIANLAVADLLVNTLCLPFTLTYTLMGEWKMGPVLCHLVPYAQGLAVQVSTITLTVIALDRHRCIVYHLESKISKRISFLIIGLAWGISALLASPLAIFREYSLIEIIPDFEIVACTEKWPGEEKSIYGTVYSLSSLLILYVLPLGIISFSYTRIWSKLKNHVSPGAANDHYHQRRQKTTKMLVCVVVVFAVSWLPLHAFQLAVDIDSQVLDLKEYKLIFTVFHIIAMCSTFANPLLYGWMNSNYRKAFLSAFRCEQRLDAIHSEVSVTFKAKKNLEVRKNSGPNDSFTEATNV
The assay can be described thus: RLB: displacement of 125I-PYY(1-36) from hNPY2R membranes.

B1: Compound 82 (peptide)
peptide: Isovaleryl-APAK([Ahx-γGlu-C18 diacid])PPEDASPEEIQRYYVSLRHYYNWLTRQRY-NH2
SMILES: CC[C@H](C)[C@H](NC(=O)[C@H](CCC(=O)O)NC(=O)[C@H](CCC(=O)O)NC(=O)[C@@H]1CCCN1C(=O)[C@H](CO)NC(=O)[C@H](C)NC(=O)[C@H](CC(=O)O)NC(=O)[C@H](CCC(=O)O)NC(=O)[C@@H]1CCCN1C(=O)[C@@H]1CCCN1C(=O)[C@H](CCCCNC(=O)CCCCCNC(=O)CC[C@H](NC(=O)CCCCCCCCCCCCCCCCC(=O)O)C(=O)O)NC(=O)[C@H](C)NC(=O)[C@@H]1CCCN1C(=O)[C@H](C)NC(=O)CC(C)C)C(=O)N[C@@H](CCC(N)=O)C(=O)N[C@@H](CCCNC(=N)N)C(=O)N[C@@H](Cc1ccc(O)cc1)C(=O)N[C@@H](Cc1ccc(O)cc1)C(=O)N[C@H](C(=O)N[C@@H](CO)C(=O)N[C@@H](CC(C)C)C(=O)N[C@@H](CCCNC(=N)N)C(=O)N[C@@H](Cc1c[nH]cn1)C(=O)N[C@@H](Cc1ccc(O)cc1)C(=O)N[C@@H](Cc1ccc(O)cc1)C(=O)N[C@@H](CC(N)=O)C(=O)N[C@@H](Cc1c[nH]c2ccccc12)C(=O)N[C@@H](CC(C)C)C(=O)N[C@H](C(=O)N[C@@H](CCCNC(=N)N)C(=O)N[C@@H](CCC(N)=O)C(=O)N[C@@H](CCCNC(=N)N)C(=O)N[C@@H](Cc1ccc(O)cc1)C(N)=O)[C@@H](C)O)C(C)C
Molecule B1 showed a Ki of 0.58 nM.

B2: Compound 87 (peptide)
peptide: Isovaleryl-APEK([Ahx-γGlu-C18 diacid])PEEDATPEELQRYYVPLRHYYNWLTRQRY-NH2
SMILES: CC(C)CC(=O)N[C@@H](C)C(=O)N1CCC[C@H]1C(=O)N[C@@H](CCC(=O)O)C(=O)N[C@@H](CCCCNC(=O)CCCCCNC(=O)CC[C@H](NC(=O)CCCCCCCCCCCCCCCCC(=O)O)C(=O)O)C(=O)N1CCC[C@H]1C(=O)N[C@@H](CCC(=O)O)C(=O)N[C@@H](CCC(=O)O)C(=O)N[C@@H](CC(=O)O)C(=O)N[C@@H](C)C(=O)N[C@H](C(=O)N1CCC[C@H]1C(=O)N[C@@H](CCC(=O)O)C(=O)N[C@@H](CCC(=O)O)C(=O)N[C@@H](CC(C)C)C(=O)N[C@@H](CCC(N)=O)C(=O)N[C@@H](CCCNC(=N)N)C(=O)N[C@@H](Cc1ccc(O)cc1)C(=O)N[C@@H](Cc1ccc(O)cc1)C(=O)N[C@H](C(=O)N1CCC[C@H]1C(=O)N[C@@H](CC(C)C)C(=O)N[C@@H](CCCNC(=N)N)C(=O)N[C@@H](Cc1c[nH]cn1)C(=O)N[C@@H](Cc1ccc(O)cc1)C(=O)N[C@@H](Cc1ccc(O)cc1)C(=O)N[C@@H](CC(N)=O)C(=O)N[C@@H](Cc1c[nH]c2ccccc12)C(=O)N[C@@H](CC(C)C)C(=O)N[C@H](C(=O)N[C@@H](CCCNC(=N)N)C(=O)N[C@@H](CCC(N)=O)C(=O)N[C@@H](CCCNC(=N)N)C(=O)N[C@@H](Cc1ccc(O)cc1)C(N)=O)[C@@H](C)O)C(C)C)[C@@H](C)O
As for B2, the inhibitory constant (Ki) is 22.4 nM.

B3: Compound 83 (peptide)
peptide: Isovaleryl-APEK([Ahx-γGlu-C18 diacid])PEEDATSEELQRYYVSLRHYYNWLTRQRY-NH2
SMILES: CC(C)CC(=O)N[C@@H](C)C(=O)N1CCC[C@H]1C(=O)N[C@@H](CCC(=O)O)C(=O)N[C@@H](CCCCNC(=O)CCCCCNC(=O)CC[C@H](NC(=O)CCCCCCCCCCCCCCCCC(=O)O)C(=O)O)C(=O)N1CCC[C@H]1C(=O)N[C@@H](CCC(=O)O)C(=O)N[C@@H](CCC(=O)O)C(=O)N[C@@H](CC(=O)O)C(=O)N[C@@H](C)C(=O)N[C@H](C(=O)N[C@@H](CO)C(=O)N[C@@H](CCC(=O)O)C(=O)N[C@@H](CCC(=O)O)C(=O)N[C@@H](CC(C)C)C(=O)N[C@@H](CCC(N)=O)C(=O)N[C@@H](CCCNC(=N)N)C(=O)N[C@@H](Cc1ccc(O)cc1)C(=O)N[C@@H](Cc1ccc(O)cc1)C(=O)N[C@H](C(=O)N[C@@H](CO)C(=O)N[C@@H](CC(C)C)C(=O)N[C@@H](CCCNC(=N)N)C(=O)N[C@@H](Cc1c[nH]cn1)C(=O)N[C@@H](Cc1ccc(O)cc1)C(=O)N[C@@H](Cc1ccc(O)cc1)C(=O)N[C@@H](CC(N)=O)C(=O)N[C@@H](Cc1c[nH]c2ccccc12)C(=O)N[C@@H](CC(C)C)C(=O)N[C@H](C(=O)N[C@@H](CCCNC(=N)N)C(=O)N[C@@H](CCC(N)=O)C(=O)N[C@@H](CCCNC(=N)N)C(=O)N[C@@H](Cc1ccc(O)cc1)C(N)=O)[C@@H](C)O)C(C)C)[C@@H](C)O
B3 came in with an inhibition constant (Ki) of 6.91 nM.

B4: Compound 86 (peptide)
peptide: Isovaleryl-APEK([Ahx-γGlu-C18 diacid])PEEDATPEEIQRYYASLRHYYNWLTRQRY-NH2
SMILES: CC[C@H](C)[C@H](NC(=O)[C@H](CCC(=O)O)NC(=O)[C@H](CCC(=O)O)NC(=O)[C@@H]1CCCN1C(=O)[C@@H](NC(=O)[C@H](C)NC(=O)[C@H](CC(=O)O)NC(=O)[C@H](CCC(=O)O)NC(=O)[C@H](CCC(=O)O)NC(=O)[C@@H]1CCCN1C(=O)[C@H](CCCCNC(=O)CCCCCNC(=O)CC[C@H](NC(=O)CCCCCCCCCCCCCCCCC(=O)O)C(=O)O)NC(=O)[C@H](CCC(=O)O)NC(=O)[C@@H]1CCCN1C(=O)[C@H](C)NC(=O)CC(C)C)[C@@H](C)O)C(=O)N[C@@H](CCC(N)=O)C(=O)N[C@@H](CCCNC(=N)N)C(=O)N[C@@H](Cc1ccc(O)cc1)C(=O)N[C@@H](Cc1ccc(O)cc1)C(=O)N[C@@H](C)C(=O)N[C@@H](CO)C(=O)N[C@@H](CC(C)C)C(=O)N[C@@H](CCCNC(=N)N)C(=O)N[C@@H](Cc1c[nH]cn1)C(=O)N[C@@H](Cc1ccc(O)cc1)C(=O)N[C@@H](Cc1ccc(O)cc1)C(=O)N[C@@H](CC(N)=O)C(=O)N[C@@H](Cc1c[nH]c2ccccc12)C(=O)N[C@@H](CC(C)C)C(=O)N[C@H](C(=O)N[C@@H](CCCNC(=N)N)C(=O)N[C@@H](CCC(N)=O)C(=O)N[C@@H](CCCNC(=N)N)C(=O)N[C@@H](Cc1ccc(O)cc1)C(N)=O)[C@@H](C)O
B4 returned an inhibitory constant (Ki) of 4.33 nM.

B5: Compound 85 (peptide)
peptide: Isovaleryl-APAK([Ahx-γGlu-C18 diacid])PEEDASPEETQRYYVSLRHYYNWLTRQRY-NH2
SMILES: CC(C)CC(=O)N[C@@H](C)C(=O)N1CCC[C@H]1C(=O)N[C@@H](C)C(=O)N[C@@H](CCCCNC(=O)CCCCCNC(=O)CC[C@H](NC(=O)CCCCCCCCCCCCCCCCC(=O)O)C(=O)O)C(=O)N1CCC[C@H]1C(=O)N[C@@H](CCC(=O)O)C(=O)N[C@@H](CCC(=O)O)C(=O)N[C@@H](CC(=O)O)C(=O)N[C@@H](C)C(=O)N[C@@H](CO)C(=O)N1CCC[C@H]1C(=O)N[C@@H](CCC(=O)O)C(=O)N[C@@H](CCC(=O)O)C(=O)N[C@H](C(=O)N[C@@H](CCC(N)=O)C(=O)N[C@@H](CCCNC(=N)N)C(=O)N[C@@H](Cc1ccc(O)cc1)C(=O)N[C@@H](Cc1ccc(O)cc1)C(=O)N[C@H](C(=O)N[C@@H](CO)C(=O)N[C@@H](CC(C)C)C(=O)N[C@@H](CCCNC(=N)N)C(=O)N[C@@H](Cc1c[nH]cn1)C(=O)N[C@@H](Cc1ccc(O)cc1)C(=O)N[C@@H](Cc1ccc(O)cc1)C(=O)N[C@@H](CC(N)=O)C(=O)N[C@@H](Cc1c[nH]c2ccccc12)C(=O)N[C@@H](CC(C)C)C(=O)N[C@H](C(=O)N[C@@H](CCCNC(=N)N)C(=O)N[C@@H](CCC(N)=O)C(=O)N[C@@H](CCCNC(=N)N)C(=O)N[C@@H](Cc1ccc(O)cc1)C(N)=O)[C@@H](C)O)C(C)C)[C@@H](C)O
B5: the affinity corresponds to a Ki of 1.61 nM.

Values taken from US20260015399A1 (Boehringer Ingelheim, published 2026).
